# Reference: patent US20100104550A1 (ADELAIDE RESEARCH AND INNOVATION, published 2010)
# What was measured:
# [1] = molecular target: EGF receptor (EGFR) on MDA231luc cells (luciferase-expressing derivative of EGFR-positive human brea (human (human breast carcinoma cells), UniProt P00533 25-1210)); assay: cell-based or functional assay
# [2] = molecular target: EGF receptor (EGFR) on F98/EGFR rat glioma cells engineered to express 10^6 EGFR per cell (UniProt P00533 25-1210); assay: cell-based or functional assay
binder,measurement,setting,value
"EGF-SubA fusion protein (Cys-tag, linker, human EGF, linker, SubA 22-347) (other) MKESCAKKFQRQHMDSGGGGSGGGGSGGGGSMGNSDSECPLSHDGYCLHDGVCMYIEALDKYACNCVVGYIGERCQYRDLKWWELRSMADIGSEKPWYFDAIGLTETTMSLTDKNTPVVVSVVDSGVAFIGGLSDSEFAKFSFTQDGSPFPVKKSEALYIHGTAMASLIASRYGIYGVYPHALISSRRVIPDGVQDSWIRAIESIMSNVFLAPGEEKIINISGGQKGVASASVWTELLSRMGRNNDRLIVAAVGNDGADIRKLSAQQRIWPAAYHPVSSVNKKQDPVIRVAALAQYRKGETPVLHGGGITGSRFGNNWVDIAAPGQNITFLRPDAKTGTGSGTSEATAIVSGVLAAMTSCNPRATATELKRTLLESADKYPSLVDKVTEGRVLNAEKAISMFCKKNYIPVRQGRMSEEL","IC50 of cytotoxicity toward MDA-231luc cells (72 h, Cell Proliferation Assay)",[1],~50 pM
same,"IC50 of cytotoxicity toward F98/EGFR cells (72 h, Cell Proliferation Assay)",[2],5 pM
same,"fold difference in cytotoxicity, F98/EGFR cells against parental F-98 cells",[2],500 fold
